Experiments:
[1] = target: Lyn-kinase, endogenous, immunoprecipitated from WEHI-231 cells (UniProt P25911)
[2] = target: Syk, endogenous, from WEHI-231 cells (UniProt P48025)
[3] = target: T1, CD19, endogenous, immunoprecipitated from WEHI-231 cells (UniProt P25918)
T1 sequence: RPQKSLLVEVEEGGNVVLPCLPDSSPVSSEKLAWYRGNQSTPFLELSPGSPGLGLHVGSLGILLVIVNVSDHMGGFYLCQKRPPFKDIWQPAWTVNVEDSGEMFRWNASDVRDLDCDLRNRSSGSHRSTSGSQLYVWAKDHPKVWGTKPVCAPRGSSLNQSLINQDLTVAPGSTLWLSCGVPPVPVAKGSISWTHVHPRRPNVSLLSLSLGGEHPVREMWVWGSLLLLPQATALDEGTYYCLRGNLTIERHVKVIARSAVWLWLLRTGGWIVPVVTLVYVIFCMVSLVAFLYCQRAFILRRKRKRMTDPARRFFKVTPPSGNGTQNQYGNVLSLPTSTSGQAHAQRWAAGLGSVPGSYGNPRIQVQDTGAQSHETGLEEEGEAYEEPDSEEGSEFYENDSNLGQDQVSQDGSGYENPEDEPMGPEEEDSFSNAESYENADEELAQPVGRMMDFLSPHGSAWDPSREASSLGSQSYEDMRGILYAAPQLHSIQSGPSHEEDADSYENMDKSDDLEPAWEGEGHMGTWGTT

Syk, endogenous, from WEHI-231 cells, sequence (P48025 whole entry, looked up): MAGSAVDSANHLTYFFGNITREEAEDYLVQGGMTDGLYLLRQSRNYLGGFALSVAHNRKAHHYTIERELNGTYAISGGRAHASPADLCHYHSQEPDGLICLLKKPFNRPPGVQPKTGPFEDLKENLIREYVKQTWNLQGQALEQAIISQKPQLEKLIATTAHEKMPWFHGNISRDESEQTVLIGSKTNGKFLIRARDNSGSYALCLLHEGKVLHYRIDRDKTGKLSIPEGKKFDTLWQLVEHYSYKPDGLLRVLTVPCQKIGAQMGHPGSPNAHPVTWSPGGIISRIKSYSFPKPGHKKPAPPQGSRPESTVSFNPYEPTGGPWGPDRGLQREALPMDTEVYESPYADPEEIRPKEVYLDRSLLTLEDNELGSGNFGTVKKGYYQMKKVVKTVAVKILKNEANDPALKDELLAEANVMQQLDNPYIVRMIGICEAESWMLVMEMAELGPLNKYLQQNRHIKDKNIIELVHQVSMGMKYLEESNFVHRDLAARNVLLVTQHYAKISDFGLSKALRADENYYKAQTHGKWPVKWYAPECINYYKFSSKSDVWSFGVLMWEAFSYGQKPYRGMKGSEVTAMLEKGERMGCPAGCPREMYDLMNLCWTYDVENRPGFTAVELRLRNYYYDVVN
Lyn-kinase, endogenous, immunoprecipitated from WEHI-231 cells, sequence (P25911 whole entry, looked up): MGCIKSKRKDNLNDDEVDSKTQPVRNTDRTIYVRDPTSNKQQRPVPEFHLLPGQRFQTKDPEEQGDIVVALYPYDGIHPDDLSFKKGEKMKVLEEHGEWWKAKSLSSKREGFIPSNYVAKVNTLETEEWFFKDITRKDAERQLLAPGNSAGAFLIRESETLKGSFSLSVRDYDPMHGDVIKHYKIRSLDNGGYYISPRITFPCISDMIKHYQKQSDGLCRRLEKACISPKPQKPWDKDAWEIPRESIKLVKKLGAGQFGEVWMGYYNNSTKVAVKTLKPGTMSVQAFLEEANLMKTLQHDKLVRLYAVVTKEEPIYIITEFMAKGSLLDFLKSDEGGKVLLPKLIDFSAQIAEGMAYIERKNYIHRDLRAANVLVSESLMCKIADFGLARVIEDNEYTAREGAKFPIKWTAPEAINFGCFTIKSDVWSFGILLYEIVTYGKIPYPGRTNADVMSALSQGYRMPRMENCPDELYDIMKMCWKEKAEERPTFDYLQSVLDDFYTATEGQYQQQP

Substance: exogenous Lyn (5 units added to the kinase assay)
- phosphorylation level of immunoprecipitated Lyn (anti-phosphotyrosine Western blot) with exogenous Lyn and 0, 10, 50 and 100 µM K055H302 [1]: Lyn, CD19 and Syk all showed dose-dependent decreased phosphorylation in the presence of the compound of the invention
- phosphorylation level of immunoprecipitated Syk (anti-phosphotyrosine Western blot) with exogenous Lyn and 0, 10, 50 and 100 µM K055H302 [2]: Lyn, CD19 and Syk all showed dose-dependent decreased phosphorylation in the presence of the compound of the invention
- phosphorylation level of immunoprecipitated CD19 (anti-phosphotyrosine Western blot) with exogenous Lyn and 0, 10, 50 and 100 µM K055H302 [3]: Lyn, CD19 and Syk all showed dose-dependent decreased phosphorylation in the presence of the compound of the invention
